The results in this text go back to paper PMC4735607, “Reversal of axonal growth defects in an extraocular fibrosis model by engineering the kinesin–microtubule interface” (Nature Communications, 2016).

Test [1] addresses microtubules of recombinant human TUBA1B/TUBB3 tubulin with TUBB3 R262H (human) (UniProt P68363).
For test [2], the target named is microtubules of recombinant human TUBA1B/TUBB3 tubulin with TUBB3 R262A (human) (UniProt P68363).
Test [3] concerns the target T1, microtubules of recombinant human TUBA1B/TUBB3 tubulin, wild type (human, UniProt P68363-1 1-451; Q13509-1 1-450, K40R).
T1 construct: Polymer of alpha/beta heterodimers stabilised with taxol; also called WT MTs; WT MT; source: HighFive insect cells (baculovirus), purified (DEAE Sepharose, TALON, anti-FLAG resin), polymerized with taxol; not shown: FLAG (DYKDDDDK)
The test is described as follows: single-molecule motility assay (total internal reflection fluorescence microscopy); MTs immobilised on PEG-coated glass via streptavidin and biotinylated nonmotile kinesin HK340-E236A; BG-549-labelled HK432 at 0.4 nM; x2 MA buffer pH 6.8, 1 mM ATP, 1 mg/ml casein, 10 uM taxol, 25 °C. Particulars: both partners purified.

Test [4] concerns the target T2, microtubules of recombinant human TUBA1B/TUBB3 tubulin with TUBB3 R262A (human, UniProt P68363-1 1-451; Q13509-1 1-450, K40R | R262A).
T2 construct: human beta3-tubulin TUBB3 with the synthetic mutation R262A; also called R262A MTs; β-R262A MT; source: HighFive insect cells (baculovirus), purified (DEAE Sepharose, TALON, anti-FLAG resin), polymerized with taxol; not shown: FLAG (DYKDDDDK)
The test is described as above. Particulars: both partners purified.

Test [5] has as its target T2, microtubules of recombinant human …. The experiment in a line: co-sedimentation; BG-549-labelled HK349 with MTs; x2 MA buffer, 1 mg/ml casein, 40 uM taxol, 1 mM ADP and 1 U/ml hexokinase (ADP state). Particulars: both partners purified.
Test [6] has the same target. The experiment in a line: co-sedimentation; BG-549-labelled HK349 with MTs; x2 MA buffer, 1 mg/ml casein, 40 uM taxol, 1 U/ml apyrase (nucleotide-free state). Particulars: both partners purified.
Test [7] shares this target. The test is described as follows: co-sedimentation; BG-549-labelled HK349 with MTs; x2 MA buffer, 1 mg/ml casein, 40 uM taxol, 1 mM AMPPNP and 1 U/ml apyrase (AMPPNP state). Particulars: both partners purified.

T1 sequence (P68363 whole entry K40R, chain 1 of 2): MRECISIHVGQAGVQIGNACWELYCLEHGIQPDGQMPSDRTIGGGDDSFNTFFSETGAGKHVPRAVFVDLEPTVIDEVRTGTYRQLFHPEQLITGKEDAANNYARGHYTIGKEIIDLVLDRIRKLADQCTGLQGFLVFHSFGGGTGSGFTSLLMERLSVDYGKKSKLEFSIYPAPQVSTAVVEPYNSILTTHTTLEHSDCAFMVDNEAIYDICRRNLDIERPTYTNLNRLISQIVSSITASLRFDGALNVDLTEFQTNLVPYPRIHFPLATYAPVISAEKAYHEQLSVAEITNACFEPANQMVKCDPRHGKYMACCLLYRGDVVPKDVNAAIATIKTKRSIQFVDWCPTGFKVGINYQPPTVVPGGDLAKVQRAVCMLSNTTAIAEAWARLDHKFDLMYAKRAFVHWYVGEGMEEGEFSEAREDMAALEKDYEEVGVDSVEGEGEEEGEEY
T1 sequence (Q13509 whole entry, chain 2 of 2): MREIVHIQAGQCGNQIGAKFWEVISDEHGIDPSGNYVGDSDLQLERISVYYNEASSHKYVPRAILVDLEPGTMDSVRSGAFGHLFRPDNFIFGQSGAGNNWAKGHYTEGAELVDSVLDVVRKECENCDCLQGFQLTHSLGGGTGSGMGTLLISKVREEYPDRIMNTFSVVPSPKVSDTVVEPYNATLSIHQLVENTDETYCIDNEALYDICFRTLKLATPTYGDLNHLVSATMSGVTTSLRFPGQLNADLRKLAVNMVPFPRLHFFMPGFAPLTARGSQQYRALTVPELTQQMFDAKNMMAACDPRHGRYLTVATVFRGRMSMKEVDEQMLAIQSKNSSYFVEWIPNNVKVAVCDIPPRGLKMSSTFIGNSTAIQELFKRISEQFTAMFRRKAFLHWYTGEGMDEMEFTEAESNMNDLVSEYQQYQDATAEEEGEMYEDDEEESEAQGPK
T2 sequence (P68363 whole entry K40R, chain 1 of 2): as the sequence (P68363 whole entry K40R, chain 1 of 2) above
T2 sequence (Q13509 whole entry R262A, chain 2 of 2): as the sequence (Q13509 whole entry, chain 2 of 2) above, with R262A counted along it
microtubules of recombinant human TUBA1B/TUBB3 tubulin with TUBB3 R262H (human), sequence (P68363 whole entry K40R, chain 1 of 2): as the sequence (P68363 whole entry K40R, chain 1 of 2) above
microtubules of recombinant human TUBA1B/TUBB3 tubulin with TUBB3 R262H (human), sequence (Q13509 whole entry R262H, chain 2 of 2, further chain): as the sequence (Q13509 whole entry, chain 2 of 2) above, with R262H counted along it
microtubules of recombinant human TUBA1B/TUBB3 tubulin with TUBB3 R262A (human), sequence (P68363 whole entry K40R, chain 1 of 2): as the sequence (P68363 whole entry K40R, chain 1 of 2) above
microtubules of recombinant human TUBA1B/TUBB3 tubulin with TUBB3 R262A (human), sequence (Q13509 whole entry R262A, chain 2 of 2, further chain): as the sequence (Q13509 whole entry, chain 2 of 2) above, with R262A counted along it

B1: two-headed KIF5B motor, human KIF5B construct HK432 (residues 1-432, SNAP tag, His6) (domain or fragment, UniProt P33176 1-432, looked up)
chain: MADLAECNIKVMCRFRPLNESEVNRGDKYIAKFQGEDTVVIASKPYAFDRVFQSSTSQEQVYNDCAKKIVKDVLEGYNGTIFAYGQTSSGKTHTMEGKLHDPEGMGIIPRIVQDIFNYIYSMDENLEFHIKVSYFEIYLDKIRDLLDVSKTNLSVHEDKNRVPYVKGCTERFVCSPDEVMDTIDEGKSNRHVAVTNMNEHSSRSHSIFLINVKQENTQTEQKLSGKLYLVDLAGSEKVSKTGAEGAVLDEAKNINKSLSALGNVISALAEGSTYVPYRDSKMTRILQDSLGGNCRTTIVICCSPSSYNESETKSTLLFGQRAKTIKNTVCVNVELTAEQWKKKYEKEKEKNKILRNTIQWLENELNRWRNGETVPIDEQFDKEKANLEAFTVDKDITLTNDKPATAIGVIGNFTDAERRKCEEEIAKLYKQL
modifications: fluorescent dye BG-549 (SNAP-surface 549) on the SNAP tag
notes: human kinesin-1 heavy chain KIF5B, residues 1-432; also called WT KIF5B
In the case of B1, the MT-activated kinesin ATPase, apparent Michaelis–Menten constant K0.5MT as multiple of that with WT MTs in test [1] is 9.7 times of WT; in test [2], 10 times of WT. Besides, the MT-activated kinesin ATPase, kcat as percent of that with WT MTs in test [1] is 17 % of WT; in test [2] it was 23 % of WT. For the same molecule, the binding result in test [3] is given as “binds”.

B2: D279R KIF5B, construct HK432 (residues 1-432, SNAP tag, His6) (domain or fragment, human, UniProt P33176 1-432, looked up)
chain: MADLAECNIKVMCRFRPLNESEVNRGDKYIAKFQGEDTVVIASKPYAFDRVFQSSTSQEQVYNDCAKKIVKDVLEGYNGTIFAYGQTSSGKTHTMEGKLHDPEGMGIIPRIVQDIFNYIYSMDENLEFHIKVSYFEIYLDKIRDLLDVSKTNLSVHEDKNRVPYVKGCTERFVCSPDEVMDTIDEGKSNRHVAVTNMNEHSSRSHSIFLINVKQENTQTEQKLSGKLYLVDLAGSEKVSKTGAEGAVLDEAKNINKSLSALGNVISALAEGSTYVPYRRSKMTRILQDSLGGNCRTTIVICCSPSSYNESETKSTLLFGQRAKTIKNTVCVNVELTAEQWKKKYEKEKEKNKILRNTIQWLENELNRWRNGETVPIDEQFDKEKANLEAFTVDKDITLTNDKPATAIGVIGNFTDAERRKCEEEIAKLYKQL
modifications: fluorescent dye BG-549 (SNAP-surface 549) on the SNAP tag
notes: human kinesin-1 heavy chain KIF5B, residues 1-432, D279R in the L12 loop; also called mutant HK432
Turning to B2, the “binding frequency, fold of that of WT KIF5B to WT MT” value in test [4] was found to be 2 fold. The binding result in test [3] is “binds”.

B3: D279N KIF5B, construct HK432 (residues 1-432, SNAP tag, His6) (domain or fragment, human, UniProt P33176 1-432, looked up)
chain: MADLAECNIKVMCRFRPLNESEVNRGDKYIAKFQGEDTVVIASKPYAFDRVFQSSTSQEQVYNDCAKKIVKDVLEGYNGTIFAYGQTSSGKTHTMEGKLHDPEGMGIIPRIVQDIFNYIYSMDENLEFHIKVSYFEIYLDKIRDLLDVSKTNLSVHEDKNRVPYVKGCTERFVCSPDEVMDTIDEGKSNRHVAVTNMNEHSSRSHSIFLINVKQENTQTEQKLSGKLYLVDLAGSEKVSKTGAEGAVLDEAKNINKSLSALGNVISALAEGSTYVPYRNSKMTRILQDSLGGNCRTTIVICCSPSSYNESETKSTLLFGQRAKTIKNTVCVNVELTAEQWKKKYEKEKEKNKILRNTIQWLENELNRWRNGETVPIDEQFDKEKANLEAFTVDKDITLTNDKPATAIGVIGNFTDAERRKCEEEIAKLYKQL
modifications: fluorescent dye BG-549 (SNAP-surface 549) on the SNAP tag
notes: human kinesin-1 heavy chain KIF5B, residues 1-432, D279N in the L12 loop; also called mutant HK432
B3: the binding result in test [3] is given as “binds”.

B4: D279R KIF5B, single-headed construct HK349 (residues 1-349, SNAP tag, His6) (domain or fragment, human, UniProt P33176 1-349, looked up)
chain: MADLAECNIKVMCRFRPLNESEVNRGDKYIAKFQGEDTVVIASKPYAFDRVFQSSTSQEQVYNDCAKKIVKDVLEGYNGTIFAYGQTSSGKTHTMEGKLHDPEGMGIIPRIVQDIFNYIYSMDENLEFHIKVSYFEIYLDKIRDLLDVSKTNLSVHEDKNRVPYVKGCTERFVCSPDEVMDTIDEGKSNRHVAVTNMNEHSSRSHSIFLINVKQENTQTEQKLSGKLYLVDLAGSEKVSKTGAEGAVLDEAKNINKSLSALGNVISALAEGSTYVPYRRSKMTRILQDSLGGNCRTTIVICCSPSSYNESETKSTLLFGQRAKTIKNTVCVNVELTAEQWKKKYEKEKE
modifications: fluorescent dye BG-549 (SNAP-surface 549) on the SNAP tag
notes: kinesin-1 heavy chain KIF5B, residues 1-349, D279R in the L12 loop
Regarding B4, the entries for the “fold increase in Kd against the WT–WT pair” value in test [5] and in test [6] were 2 fold and 10 fold, respectively.

B5: single-headed KIF5B construct HK349 (residues 1-349, SNAP tag, His6) (domain or fragment, human, UniProt P33176 1-349, looked up)
chain: MADLAECNIKVMCRFRPLNESEVNRGDKYIAKFQGEDTVVIASKPYAFDRVFQSSTSQEQVYNDCAKKIVKDVLEGYNGTIFAYGQTSSGKTHTMEGKLHDPEGMGIIPRIVQDIFNYIYSMDENLEFHIKVSYFEIYLDKIRDLLDVSKTNLSVHEDKNRVPYVKGCTERFVCSPDEVMDTIDEGKSNRHVAVTNMNEHSSRSHSIFLINVKQENTQTEQKLSGKLYLVDLAGSEKVSKTGAEGAVLDEAKNINKSLSALGNVISALAEGSTYVPYRDSKMTRILQDSLGGNCRTTIVICCSPSSYNESETKSTLLFGQRAKTIKNTVCVNVELTAEQWKKKYEKEKE
modifications: fluorescent dye BG-549 (SNAP-surface 549) on the SNAP tag
notes: kinesin-1 heavy chain KIF5B, residues 1-349; monomeric construct; also called K349-SNAP-His; minimal motor
As for B5, the results for the “fold increase in Kd against the WT–WT pair” value in test [5], in test [6] and in test [7] were roughly 6 fold, roughly 70 fold and roughly 90 fold, respectively.
